Results: article PMC3744345
pKd: −log10 of the molar value.

Tests used:
amyloid-β (Homo sapiens) = amyloid-β (Homo sapiens) (UniProt P05067); details: cited from earlier work
[1] = target: recombinant extracellular domain of sortilin (UniProt Q99523); assay: SPR
recombinant extracellular domain of sortilin, sequence (Q99523 78-755): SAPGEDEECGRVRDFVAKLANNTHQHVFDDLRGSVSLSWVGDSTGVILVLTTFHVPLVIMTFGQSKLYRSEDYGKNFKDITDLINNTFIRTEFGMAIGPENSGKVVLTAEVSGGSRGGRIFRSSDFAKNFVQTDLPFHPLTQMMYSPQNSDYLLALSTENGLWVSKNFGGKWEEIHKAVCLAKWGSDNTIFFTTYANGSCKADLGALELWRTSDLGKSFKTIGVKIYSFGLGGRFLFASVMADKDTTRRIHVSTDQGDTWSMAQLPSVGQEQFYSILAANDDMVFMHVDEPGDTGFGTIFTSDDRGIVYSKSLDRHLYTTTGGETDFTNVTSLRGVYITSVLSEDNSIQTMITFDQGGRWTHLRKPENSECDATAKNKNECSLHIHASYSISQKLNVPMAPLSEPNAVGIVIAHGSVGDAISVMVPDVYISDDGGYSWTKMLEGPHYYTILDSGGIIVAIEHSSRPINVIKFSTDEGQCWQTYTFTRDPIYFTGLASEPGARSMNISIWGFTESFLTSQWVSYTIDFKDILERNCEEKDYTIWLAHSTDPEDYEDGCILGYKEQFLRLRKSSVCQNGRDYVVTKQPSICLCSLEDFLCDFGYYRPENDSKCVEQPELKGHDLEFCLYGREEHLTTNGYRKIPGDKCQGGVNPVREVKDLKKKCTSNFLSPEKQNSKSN

LRP1, sequence (Q07954 20-4544): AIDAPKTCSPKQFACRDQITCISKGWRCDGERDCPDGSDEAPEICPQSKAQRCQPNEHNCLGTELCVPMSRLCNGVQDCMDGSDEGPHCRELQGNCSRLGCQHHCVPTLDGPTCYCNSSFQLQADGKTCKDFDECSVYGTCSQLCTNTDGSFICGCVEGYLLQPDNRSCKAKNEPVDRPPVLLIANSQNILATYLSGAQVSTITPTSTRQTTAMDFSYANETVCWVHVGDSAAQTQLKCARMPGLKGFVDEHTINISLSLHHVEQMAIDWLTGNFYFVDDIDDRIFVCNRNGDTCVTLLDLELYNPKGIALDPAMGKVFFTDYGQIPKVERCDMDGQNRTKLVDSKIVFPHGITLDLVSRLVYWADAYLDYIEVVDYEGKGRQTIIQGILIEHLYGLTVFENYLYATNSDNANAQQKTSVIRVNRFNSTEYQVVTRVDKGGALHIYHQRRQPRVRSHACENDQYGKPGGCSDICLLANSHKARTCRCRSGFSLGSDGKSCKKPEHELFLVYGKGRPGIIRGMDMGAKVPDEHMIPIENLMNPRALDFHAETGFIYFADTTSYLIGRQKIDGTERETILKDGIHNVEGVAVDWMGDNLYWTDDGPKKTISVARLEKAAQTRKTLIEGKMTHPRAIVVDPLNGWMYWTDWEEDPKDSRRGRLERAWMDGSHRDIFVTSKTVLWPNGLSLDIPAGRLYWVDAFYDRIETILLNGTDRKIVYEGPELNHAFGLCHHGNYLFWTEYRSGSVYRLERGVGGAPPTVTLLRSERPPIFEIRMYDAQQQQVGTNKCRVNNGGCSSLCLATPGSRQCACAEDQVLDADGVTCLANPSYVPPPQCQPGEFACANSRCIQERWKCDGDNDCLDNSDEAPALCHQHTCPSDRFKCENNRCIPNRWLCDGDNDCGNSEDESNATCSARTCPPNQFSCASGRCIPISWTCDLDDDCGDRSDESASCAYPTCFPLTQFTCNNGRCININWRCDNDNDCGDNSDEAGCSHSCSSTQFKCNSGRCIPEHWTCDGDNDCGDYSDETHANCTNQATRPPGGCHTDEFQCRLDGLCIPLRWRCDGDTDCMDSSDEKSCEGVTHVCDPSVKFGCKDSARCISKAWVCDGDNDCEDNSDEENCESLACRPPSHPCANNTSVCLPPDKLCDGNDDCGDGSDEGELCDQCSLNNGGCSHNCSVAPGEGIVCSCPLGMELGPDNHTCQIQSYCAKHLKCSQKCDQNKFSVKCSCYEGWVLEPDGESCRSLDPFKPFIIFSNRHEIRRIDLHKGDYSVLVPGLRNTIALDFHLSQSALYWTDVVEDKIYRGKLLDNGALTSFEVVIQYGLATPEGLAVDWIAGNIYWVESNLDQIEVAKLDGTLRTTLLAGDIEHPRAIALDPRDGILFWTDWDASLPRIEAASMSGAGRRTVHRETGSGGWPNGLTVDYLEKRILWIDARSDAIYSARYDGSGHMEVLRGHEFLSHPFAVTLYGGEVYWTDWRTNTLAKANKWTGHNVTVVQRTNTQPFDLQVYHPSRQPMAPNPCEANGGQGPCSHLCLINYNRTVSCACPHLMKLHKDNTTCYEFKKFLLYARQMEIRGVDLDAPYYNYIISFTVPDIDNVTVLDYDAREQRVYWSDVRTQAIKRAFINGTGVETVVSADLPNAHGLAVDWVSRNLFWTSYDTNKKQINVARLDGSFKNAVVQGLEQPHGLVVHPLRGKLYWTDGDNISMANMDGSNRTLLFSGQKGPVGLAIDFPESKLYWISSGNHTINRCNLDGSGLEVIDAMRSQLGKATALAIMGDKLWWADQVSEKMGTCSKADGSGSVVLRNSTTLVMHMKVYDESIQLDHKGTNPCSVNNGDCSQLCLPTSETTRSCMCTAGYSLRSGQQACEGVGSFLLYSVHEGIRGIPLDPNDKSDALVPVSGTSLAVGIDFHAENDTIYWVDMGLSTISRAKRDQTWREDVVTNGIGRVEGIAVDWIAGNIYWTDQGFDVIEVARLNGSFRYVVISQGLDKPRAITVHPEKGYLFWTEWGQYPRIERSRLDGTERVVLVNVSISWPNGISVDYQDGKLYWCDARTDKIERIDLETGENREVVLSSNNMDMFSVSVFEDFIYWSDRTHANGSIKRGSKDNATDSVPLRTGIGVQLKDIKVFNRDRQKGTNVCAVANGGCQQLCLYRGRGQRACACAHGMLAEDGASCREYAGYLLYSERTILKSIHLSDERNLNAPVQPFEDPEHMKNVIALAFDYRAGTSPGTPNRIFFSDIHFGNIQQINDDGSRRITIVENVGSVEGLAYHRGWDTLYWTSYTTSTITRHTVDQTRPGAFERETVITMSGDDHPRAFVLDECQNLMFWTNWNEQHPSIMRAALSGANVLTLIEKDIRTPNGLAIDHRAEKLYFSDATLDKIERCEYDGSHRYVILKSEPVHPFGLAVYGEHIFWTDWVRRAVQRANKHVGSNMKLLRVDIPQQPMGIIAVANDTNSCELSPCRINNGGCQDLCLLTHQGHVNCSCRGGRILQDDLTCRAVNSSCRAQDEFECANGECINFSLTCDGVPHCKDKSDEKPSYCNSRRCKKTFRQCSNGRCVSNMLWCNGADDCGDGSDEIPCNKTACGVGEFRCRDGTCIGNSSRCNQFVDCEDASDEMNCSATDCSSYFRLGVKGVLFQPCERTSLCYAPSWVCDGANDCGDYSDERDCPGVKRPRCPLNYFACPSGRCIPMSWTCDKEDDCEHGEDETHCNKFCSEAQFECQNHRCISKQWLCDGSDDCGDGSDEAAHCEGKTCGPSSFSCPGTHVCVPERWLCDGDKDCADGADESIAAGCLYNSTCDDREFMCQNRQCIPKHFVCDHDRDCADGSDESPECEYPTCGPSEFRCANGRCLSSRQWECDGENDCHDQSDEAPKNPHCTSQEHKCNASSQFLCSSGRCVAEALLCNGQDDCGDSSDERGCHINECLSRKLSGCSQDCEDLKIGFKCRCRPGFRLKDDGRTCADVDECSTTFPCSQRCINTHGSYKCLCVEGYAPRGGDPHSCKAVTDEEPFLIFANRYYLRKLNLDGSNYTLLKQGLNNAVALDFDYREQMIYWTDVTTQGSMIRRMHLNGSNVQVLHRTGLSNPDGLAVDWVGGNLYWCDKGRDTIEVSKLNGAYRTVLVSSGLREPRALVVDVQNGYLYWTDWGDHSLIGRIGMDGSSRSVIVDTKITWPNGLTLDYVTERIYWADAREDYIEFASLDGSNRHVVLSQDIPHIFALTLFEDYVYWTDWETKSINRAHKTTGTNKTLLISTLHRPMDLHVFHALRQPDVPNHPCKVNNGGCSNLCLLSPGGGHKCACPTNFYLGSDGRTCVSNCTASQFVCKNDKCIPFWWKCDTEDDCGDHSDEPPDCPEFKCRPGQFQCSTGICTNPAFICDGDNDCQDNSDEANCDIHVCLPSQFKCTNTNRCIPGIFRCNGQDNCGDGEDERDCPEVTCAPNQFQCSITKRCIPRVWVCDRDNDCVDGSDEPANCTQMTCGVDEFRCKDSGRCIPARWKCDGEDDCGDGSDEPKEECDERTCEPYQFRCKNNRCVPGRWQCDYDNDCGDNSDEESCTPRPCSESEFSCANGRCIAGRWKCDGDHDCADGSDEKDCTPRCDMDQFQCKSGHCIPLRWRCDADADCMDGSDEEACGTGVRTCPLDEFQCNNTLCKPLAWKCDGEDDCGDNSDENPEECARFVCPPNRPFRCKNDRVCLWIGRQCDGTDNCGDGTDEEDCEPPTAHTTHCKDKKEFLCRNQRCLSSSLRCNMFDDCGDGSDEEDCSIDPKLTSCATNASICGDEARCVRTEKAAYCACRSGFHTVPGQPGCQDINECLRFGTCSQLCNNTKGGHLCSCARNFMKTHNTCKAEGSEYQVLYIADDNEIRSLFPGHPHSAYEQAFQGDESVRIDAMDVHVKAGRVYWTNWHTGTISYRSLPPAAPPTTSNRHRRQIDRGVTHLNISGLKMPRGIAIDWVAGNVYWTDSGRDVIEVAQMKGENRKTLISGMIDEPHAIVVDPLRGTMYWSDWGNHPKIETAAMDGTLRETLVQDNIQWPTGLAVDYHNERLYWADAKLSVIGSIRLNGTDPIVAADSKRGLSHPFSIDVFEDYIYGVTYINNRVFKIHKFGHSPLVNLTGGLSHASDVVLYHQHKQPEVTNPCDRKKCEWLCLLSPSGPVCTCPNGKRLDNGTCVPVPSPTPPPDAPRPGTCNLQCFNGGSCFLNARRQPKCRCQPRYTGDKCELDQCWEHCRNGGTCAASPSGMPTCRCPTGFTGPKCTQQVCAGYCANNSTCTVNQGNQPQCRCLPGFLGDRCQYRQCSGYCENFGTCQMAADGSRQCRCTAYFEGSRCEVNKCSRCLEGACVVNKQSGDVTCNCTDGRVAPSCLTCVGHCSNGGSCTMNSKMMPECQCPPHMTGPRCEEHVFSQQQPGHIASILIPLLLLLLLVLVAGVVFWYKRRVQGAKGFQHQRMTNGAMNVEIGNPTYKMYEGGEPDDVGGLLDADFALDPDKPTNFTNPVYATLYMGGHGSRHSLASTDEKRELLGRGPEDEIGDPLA

Row | pKd [1] | Substance | pKd (amyloid-β (Homo sapiens))
1 |  | LRP1 (from UniProt Q07954) | 9.24
2 | 6.93 | recombinant human APOE2 (from UniProt P02649 19-317) (natural protein) | 
3 | 6.94 | recombinant human APOE4 (from UniProt P02649 19-317) (natural protein) | 
